The source of these data is publication PMC3320582, “Group A Streptococcus Secreted Esterase Hydrolyzes Platelet-Activating Factor to Impede Neutrophil Recruitment and Facilitate Innate Immune Evasion” (PLoS Pathogens, 2012).

The subject of this data set is [H][C@@](COCCCCCCCCCCCCCCCC)(COP(=O)([O-])OCC[N+](C)(C)C)SC(C)=O. Description: purified protein. Conditions: 20 mM Tris-HCl, pH 8.0, DTNB, room temperature, substrate concentrations corrected for early hydrolysis.

On to “SsE (Streptococcus pyogenes serotype M1)”, for which the Michaelis-Menten constant (Km) was 7.0 µM and the turnover number (kcat) worked out at 69.6 s⁻¹.
